Each block holds one binder with its values, some of them ahead of it.
Biological target: T1, wild type nucleophosmin (NPM) (human, UniProt P06748 1-294)
T1 construct: human nucleophosmin, full length, wild type, pentameric; also called NPM1; B23; source: E. coli BL21 (DE3), purified (Ni-NTA, TEV, second Ni-NTA, Superdex 200); not shown: (His)10-ZZ, N-terminal, cleaved
Assay: ITC; importin α, importin Δα or importin α/β at 45–60 μM titrated onto NPM (1–1.2 μM pentamer); 50 mM Tris/HCl pH 7.5, 100 mM NaCl, 2 mM TCEP, 10% glycerol; identical, independent binding sites model; n counts importins for each NPM pentamer
Details: both partners purified

T1 sequence (P06748 whole entry): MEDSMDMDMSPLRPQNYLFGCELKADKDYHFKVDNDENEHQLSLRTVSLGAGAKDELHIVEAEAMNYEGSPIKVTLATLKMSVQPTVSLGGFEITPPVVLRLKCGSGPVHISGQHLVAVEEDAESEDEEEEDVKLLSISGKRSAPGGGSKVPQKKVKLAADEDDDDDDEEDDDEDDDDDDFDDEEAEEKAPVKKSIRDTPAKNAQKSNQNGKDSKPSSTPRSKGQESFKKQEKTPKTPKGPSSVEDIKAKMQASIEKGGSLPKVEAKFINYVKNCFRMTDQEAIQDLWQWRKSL

Kd: 703 ± 347 nM | dH: -10.9 ± 4 kcal/mol | stoichiometry N: 5 ± 0.2
B1: importin α (receptor)
chain: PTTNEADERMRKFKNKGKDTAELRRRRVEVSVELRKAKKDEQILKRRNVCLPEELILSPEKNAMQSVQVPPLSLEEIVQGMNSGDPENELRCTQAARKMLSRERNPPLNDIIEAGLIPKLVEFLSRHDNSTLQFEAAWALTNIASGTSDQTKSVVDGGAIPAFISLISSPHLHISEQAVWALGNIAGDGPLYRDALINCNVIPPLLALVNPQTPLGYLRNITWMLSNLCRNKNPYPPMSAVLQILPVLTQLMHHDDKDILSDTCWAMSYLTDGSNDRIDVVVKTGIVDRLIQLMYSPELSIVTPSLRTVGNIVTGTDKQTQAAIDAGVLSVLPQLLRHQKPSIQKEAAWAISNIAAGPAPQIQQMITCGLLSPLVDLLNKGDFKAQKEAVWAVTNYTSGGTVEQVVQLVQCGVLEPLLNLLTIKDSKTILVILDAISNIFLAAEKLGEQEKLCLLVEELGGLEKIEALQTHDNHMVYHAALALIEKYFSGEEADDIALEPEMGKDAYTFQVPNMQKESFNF

Kd: 295 ± 20 nM | dH: -14.3 ± 3.5 kcal/mol | stoichiometry N: 4.9 ± 0.2
B2: importin Δα (importin α lacking the importin β binding (IBB) motif) (domain or fragment)
chain: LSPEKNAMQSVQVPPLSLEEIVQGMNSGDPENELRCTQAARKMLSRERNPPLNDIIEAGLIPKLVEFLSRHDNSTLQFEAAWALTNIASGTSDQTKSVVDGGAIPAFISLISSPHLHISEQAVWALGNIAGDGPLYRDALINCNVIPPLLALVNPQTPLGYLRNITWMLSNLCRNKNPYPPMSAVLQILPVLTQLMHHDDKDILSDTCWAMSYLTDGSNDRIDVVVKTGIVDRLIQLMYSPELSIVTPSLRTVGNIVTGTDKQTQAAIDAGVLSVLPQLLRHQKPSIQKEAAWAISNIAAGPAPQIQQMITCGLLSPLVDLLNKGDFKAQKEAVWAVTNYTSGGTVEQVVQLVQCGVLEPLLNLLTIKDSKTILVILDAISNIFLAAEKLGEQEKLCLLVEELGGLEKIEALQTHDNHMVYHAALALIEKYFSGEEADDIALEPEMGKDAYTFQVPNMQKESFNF

Reference: publication PMC4474691, “Leukemia-Associated Mutations in Nucleophosmin Alter Recognition by CRM1: Molecular Basis of Aberrant Transport” (PLoS ONE, 2015)
